Laboratory results: patent US20180030151A1 (MOGAM INSTITUTE FOR BIOMEDICAL RESEARCH, published 2018)
Read-outs that look alike come from different tables or passages of the source.

How the values were obtained:
Assay in all cases: cell-based or functional assay
[1] = molecular target: T1, recombinant human TFPI (tissue factor pathway inhibitor) (human, UniProt P10646 29-304)
[2] = molecular target: T1, recombinant human TFPI (tissue factor …); remark: listed apart in the source
[3] = molecular target: T1, recombinant human TFPI (tissue factor …); remark: listed apart in the source
[4] = molecular target: T1, recombinant human TFPI (tissue factor …); remark: listed apart in the source
[5] = molecular target: T1, recombinant human TFPI (tissue factor …); remark: listed apart in the source
[6] = molecular target: T1, recombinant human TFPI (tissue factor …); remark: listed apart in the source
[7] = molecular target: T1, recombinant human TFPI (tissue factor …); remark: listed apart in the source

B1: clone T417 (antibody, V domains shown)
VH: EVHLVESGGDLVKPGGSLKLSCAASGFTFSSYAMSWVRQTPDKRLEWVATITTGGSYTYYPDSVKGRFTISRDNAKNTLYLQMSSLKSEDTAMYYCARQDGNFLMDYWGQGTTVTVSS
VL: not shown
notes: also called T417 chimeric antibody
For B1, the “TFPI inhibitory activity, FXa activity assay, Ab 10 nM” value [1] was 78.4%, the “effect of inhibiting TFPI, FXa activity assay, Ab 10 nM” value [1] was 72% and the “A405, TF/FVIIa/FX complex assay, Ab 1.56 nM” value [2] was 0.134. The “A405, TF/FVIIa/FX complex assay, Ab 3.13 nM” value [2] was 0.147, the “A405, TF/FVIIa/FX complex assay, Ab 6.25 nM” value [2] was 0.179 and the “A405, TF/FVIIa/FX complex assay, Ab 12.5 nM” value [2] was 0.242. The “A405, TF/FVIIa/FX complex assay, Ab 25 nM” value [2] was 0.873, the “A405, TF/FVIIa/FX complex assay, Ab 50 nM” value [2] was 0.945 and the “A405, TF/FVIIa/FX complex assay, Ab 100 nM” value [2] was 0.949. For the same binder, the “% of Normalized, TF/FVIIa/FX complex assay, Ab 1.56 nM” value [3] was 14.5%, the “% of Normalized, TF/FVIIa/FX complex assay, Ab 3.13 nM” value [3] was 16% and the “% of Normalized, TF/FVIIa/FX complex assay, Ab 6.25 nM” value [3] was 19.4%. The “% of Normalized, TF/FVIIa/FX complex assay, Ab 12.5 nM” value [3] was 26.3%, the “% of Normalized, TF/FVIIa/FX complex assay, Ab 25 nM” value [3] was 95% and the “% of Normalized, TF/FVIIa/FX complex assay, Ab 50 nM” value [3] was 103%. For the same binder, the “% of Normalized, TF/FVIIa/FX complex assay, Ab 100 nM” value [3] was 103%, the “% of Normalized, TF/FVIIa/FX complex assay, Ab 1.56 nM” value [4] was 15.2% and the “% of Normalized, TF/FVIIa/FX complex assay, Ab 3.13 nM” value [4] was 16.8%. For the same binder, the “% of Normalized, TF/FVIIa/FX complex assay, Ab 6.25 nM” value [4] was 19.5%, the “% of Normalized, TF/FVIIa/FX complex assay, Ab 12.5 nM” value [4] was 26.3% and the “% of Normalized, TF/FVIIa/FX complex assay, Ab 25 nM” value [4] was 92.2%. The “% of Normalized, TF/FVIIa/FX complex assay, Ab 50 nM” value [4] was 95.1%, the “% of Normalized, TF/FVIIa/FX complex assay, Ab 100 nM” value [4] was 99% and the “FXa assay % of FXa alone, 0.625 nM Ab, 10 nM TFPI” value [5] was 6%. The “FXa assay % of FXa alone, 2.5 nM Ab, 10 nM TFPI” value [5] was 10%, the “FXa assay OD, 0.625 nM Ab, 10 nM TFPI” value [5] was 0.061 OD and the “FXa assay OD, 2.5 nM Ab, 10 nM TFPI” value [5] was 0.098 OD. For the same binder, the “FXa assay OD, 10 nM Ab, 10 nM TFPI” value [5] was 0.753 OD, the “FXa assay OD, 40 nM Ab, 10 nM TFPI” value [5] was 0.887 OD and the “FXa assay % of FXa alone, 2.5 nM Ab, 10 nM TFPI” value [6] was 6.9%. For the same binder, the “FXa assay % of FXa alone, 5 nM Ab, 10 nM TFPI” value [6] was 18.8%, the “FXa assay % of FXa alone, 10 nM Ab, 10 nM TFPI” value [6] was 55.2% and the “FXa assay % of FXa alone, 20 nM Ab, 10 nM TFPI” value [6] was 78%. The “FXa assay OD, 2.5 nM Ab, 10 nM TFPI” value [6] was 0.0335, the “FXa assay OD, 5 nM Ab, 10 nM TFPI” value [6] was 0.091 and the “FXa assay OD, 10 nM Ab, 10 nM TFPI” value [6] was 0.267. For the same binder, the “FXa assay OD, 20 nM Ab, 10 nM TFPI” value [6] was 0.378, the “FXa assay % of FXa alone, 2.5 nM Ab, 10 nM TFPI” value [7] was 7.2% and the “FXa assay % of FXa alone, 5 nM Ab, 10 nM TFPI” value [7] was 10.2%. For the same binder, the “FXa assay % of FXa alone, 10 nM Ab, 10 nM TFPI” value [7] was 43.9%, the “FXa assay % of FXa alone, 20 nM Ab, 10 nM TFPI” value [7] was 66.9% and the “FXa assay OD, 2.5 nM Ab, 10 nM TFPI” value [7] was 0.0855. The “FXa assay OD, 5 nM Ab, 10 nM TFPI” value [7] was 0.122, the “FXa assay OD, 10 nM Ab, 10 nM TFPI” value [7] was 0.522 and the “FXa assay OD, 20 nM Ab, 10 nM TFPI” value [7] was 0.797.
